Laboratory results taken from patent US20050049193A1.

Target: OB-Rb, full-length (long isoform) leptin receptor expressed on transfected GT1-7 cells (mouse), P48356
Assay: cell-based or functional assay

Sequence of OB-Rb, full-length (long isoform) leptin receptor expressed on transfected GT1-7 cells (mouse), P48356 (P48356 22-1162): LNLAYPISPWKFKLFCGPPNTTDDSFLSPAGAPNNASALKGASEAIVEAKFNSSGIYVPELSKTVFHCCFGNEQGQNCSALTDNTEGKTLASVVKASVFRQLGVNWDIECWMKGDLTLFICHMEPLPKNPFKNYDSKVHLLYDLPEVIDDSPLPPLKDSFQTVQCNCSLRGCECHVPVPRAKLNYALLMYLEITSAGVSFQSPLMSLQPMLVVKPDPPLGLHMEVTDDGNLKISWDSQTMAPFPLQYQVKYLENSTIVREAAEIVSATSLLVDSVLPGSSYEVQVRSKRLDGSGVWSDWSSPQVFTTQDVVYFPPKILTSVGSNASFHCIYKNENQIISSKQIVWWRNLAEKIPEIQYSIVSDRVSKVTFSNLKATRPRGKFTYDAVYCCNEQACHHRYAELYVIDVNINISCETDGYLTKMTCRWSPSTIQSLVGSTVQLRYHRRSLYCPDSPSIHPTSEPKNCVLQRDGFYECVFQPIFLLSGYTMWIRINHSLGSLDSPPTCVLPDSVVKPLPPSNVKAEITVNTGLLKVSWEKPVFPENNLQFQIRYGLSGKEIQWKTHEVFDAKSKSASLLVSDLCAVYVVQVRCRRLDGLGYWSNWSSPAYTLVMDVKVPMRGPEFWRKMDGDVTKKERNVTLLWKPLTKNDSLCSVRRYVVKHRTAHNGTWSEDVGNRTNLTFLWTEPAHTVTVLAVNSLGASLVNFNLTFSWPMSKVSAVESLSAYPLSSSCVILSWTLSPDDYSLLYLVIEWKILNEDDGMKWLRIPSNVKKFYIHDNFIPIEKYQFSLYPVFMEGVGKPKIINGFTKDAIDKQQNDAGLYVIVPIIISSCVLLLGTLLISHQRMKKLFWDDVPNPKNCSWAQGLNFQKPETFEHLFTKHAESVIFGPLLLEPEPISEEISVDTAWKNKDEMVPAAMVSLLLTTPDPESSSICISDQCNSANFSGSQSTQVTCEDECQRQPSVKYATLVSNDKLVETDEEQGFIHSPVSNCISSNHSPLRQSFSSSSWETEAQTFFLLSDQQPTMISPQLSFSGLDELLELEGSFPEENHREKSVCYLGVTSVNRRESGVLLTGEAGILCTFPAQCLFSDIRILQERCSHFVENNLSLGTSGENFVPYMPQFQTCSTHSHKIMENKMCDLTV

B1: recombinant mouse leptin, P41160 22-167 (ligand)
chain: VPIQKVQDDTKTLIKTIVTRINDISHTQSVSAKQRVTGLDFIPGLHPILSLSKMDQTLAVYQQVLTSLPSQNVLQIANDLENLRDLLHLLAFSKSCSLPQTSGLQKPESLDGVLEASLYSTEVVALSRLQGSLQDILQQLDVSPEC
Q: With B1 as the binder, how does the SEAP activity (HRRE-SEAP reporter in GT1-7 cells) read?
A: 11 fold
